The values that follow come from publication PMC11405395 (The EMBO Journal, 2024).

Test [1] has as its target T1, Homo sapiens DNA polymerase ε (POLE1, POLE2, POLE3, POLE4) (human, UniProt Q07864 1-2286; P56282 1-527; Q9NRF9 1-147; Q9NR33 1-117).
T1 construct: POLE1 (catalytic subunit of DNA polymerase ε), human; POLE2 (homologue of budding yeast Dpb2), human (PolE2_tev_2XFLAG; tag removed with TEV protease); POLE3, human; POLE4, human; The methods call the removed tag 3FLAG, the strain and plasmid 2XFLAG; also called hsPOL ε; POL ε; source: S. cerevisiae strain ySP061, purified (anti-FLAG M2 resin, TEV cleavage, MonoQ, Superdex 200); not shown: …
The test can be described thus: co-IP; purified proteins mixed: 10 nM RTEL1-FLAG with 15 nM hsPol ε, 10 min on ice; anti-FLAG M2 magnetic beads; 25 mM Hepes-KOH pH 7.6, 200 mM KOAc, 0.02% NP-40-S, 0.1 mg/mL BSA, 1 mM DTT, 10 mM Mg(OAc)2; immunoblotting. The settings on record: both partners purified.

For test [2], the target named is T2, Homo sapiens CMG helicase (CDC45-MCM2-7-GINS) (human, UniProt P49736 1-904; P25205 1-808; P33991 1-863; P33992 1-734; Q14566 1-821; P33993 …).
T2 construct: MCM2, human, subunit of CMG; MCM3, human, subunit of CMG; MCM4, human, subunit of CMG; MCM5, human, subunit of CMG; MCM6, human, subunit of CMG; MCM7, human, subunit of CMG; CDC45, human, subunit of CMG; SLD5 (GINS4), human, GINS subunit of CMG (PrA-3TEV-HsSld5; eluted from IgG Sepharose with TEV protease); PSF1 (GINS1), human, GINS subunit of CMG; PSF2 (GINS2), human, GINS subunit of CMG; PSF3 …
The test can be described thus: co-IP; purified proteins mixed: 10 nM RTEL1-FLAG with 15 nM hsCMG, 10 min on ice; anti-FLAG M2 magnetic beads; 25 mM Hepes-KOH pH 7.6, 100 mM KOAc, 0.02% NP-40-S, 0.1 mg/mL BSA, 1 mM DTT, 10 mM Mg(OAc)2; immunoblotting. The settings on record: both partners purified.

T1 sequence (Q07864 whole entry, chain 1 of 4): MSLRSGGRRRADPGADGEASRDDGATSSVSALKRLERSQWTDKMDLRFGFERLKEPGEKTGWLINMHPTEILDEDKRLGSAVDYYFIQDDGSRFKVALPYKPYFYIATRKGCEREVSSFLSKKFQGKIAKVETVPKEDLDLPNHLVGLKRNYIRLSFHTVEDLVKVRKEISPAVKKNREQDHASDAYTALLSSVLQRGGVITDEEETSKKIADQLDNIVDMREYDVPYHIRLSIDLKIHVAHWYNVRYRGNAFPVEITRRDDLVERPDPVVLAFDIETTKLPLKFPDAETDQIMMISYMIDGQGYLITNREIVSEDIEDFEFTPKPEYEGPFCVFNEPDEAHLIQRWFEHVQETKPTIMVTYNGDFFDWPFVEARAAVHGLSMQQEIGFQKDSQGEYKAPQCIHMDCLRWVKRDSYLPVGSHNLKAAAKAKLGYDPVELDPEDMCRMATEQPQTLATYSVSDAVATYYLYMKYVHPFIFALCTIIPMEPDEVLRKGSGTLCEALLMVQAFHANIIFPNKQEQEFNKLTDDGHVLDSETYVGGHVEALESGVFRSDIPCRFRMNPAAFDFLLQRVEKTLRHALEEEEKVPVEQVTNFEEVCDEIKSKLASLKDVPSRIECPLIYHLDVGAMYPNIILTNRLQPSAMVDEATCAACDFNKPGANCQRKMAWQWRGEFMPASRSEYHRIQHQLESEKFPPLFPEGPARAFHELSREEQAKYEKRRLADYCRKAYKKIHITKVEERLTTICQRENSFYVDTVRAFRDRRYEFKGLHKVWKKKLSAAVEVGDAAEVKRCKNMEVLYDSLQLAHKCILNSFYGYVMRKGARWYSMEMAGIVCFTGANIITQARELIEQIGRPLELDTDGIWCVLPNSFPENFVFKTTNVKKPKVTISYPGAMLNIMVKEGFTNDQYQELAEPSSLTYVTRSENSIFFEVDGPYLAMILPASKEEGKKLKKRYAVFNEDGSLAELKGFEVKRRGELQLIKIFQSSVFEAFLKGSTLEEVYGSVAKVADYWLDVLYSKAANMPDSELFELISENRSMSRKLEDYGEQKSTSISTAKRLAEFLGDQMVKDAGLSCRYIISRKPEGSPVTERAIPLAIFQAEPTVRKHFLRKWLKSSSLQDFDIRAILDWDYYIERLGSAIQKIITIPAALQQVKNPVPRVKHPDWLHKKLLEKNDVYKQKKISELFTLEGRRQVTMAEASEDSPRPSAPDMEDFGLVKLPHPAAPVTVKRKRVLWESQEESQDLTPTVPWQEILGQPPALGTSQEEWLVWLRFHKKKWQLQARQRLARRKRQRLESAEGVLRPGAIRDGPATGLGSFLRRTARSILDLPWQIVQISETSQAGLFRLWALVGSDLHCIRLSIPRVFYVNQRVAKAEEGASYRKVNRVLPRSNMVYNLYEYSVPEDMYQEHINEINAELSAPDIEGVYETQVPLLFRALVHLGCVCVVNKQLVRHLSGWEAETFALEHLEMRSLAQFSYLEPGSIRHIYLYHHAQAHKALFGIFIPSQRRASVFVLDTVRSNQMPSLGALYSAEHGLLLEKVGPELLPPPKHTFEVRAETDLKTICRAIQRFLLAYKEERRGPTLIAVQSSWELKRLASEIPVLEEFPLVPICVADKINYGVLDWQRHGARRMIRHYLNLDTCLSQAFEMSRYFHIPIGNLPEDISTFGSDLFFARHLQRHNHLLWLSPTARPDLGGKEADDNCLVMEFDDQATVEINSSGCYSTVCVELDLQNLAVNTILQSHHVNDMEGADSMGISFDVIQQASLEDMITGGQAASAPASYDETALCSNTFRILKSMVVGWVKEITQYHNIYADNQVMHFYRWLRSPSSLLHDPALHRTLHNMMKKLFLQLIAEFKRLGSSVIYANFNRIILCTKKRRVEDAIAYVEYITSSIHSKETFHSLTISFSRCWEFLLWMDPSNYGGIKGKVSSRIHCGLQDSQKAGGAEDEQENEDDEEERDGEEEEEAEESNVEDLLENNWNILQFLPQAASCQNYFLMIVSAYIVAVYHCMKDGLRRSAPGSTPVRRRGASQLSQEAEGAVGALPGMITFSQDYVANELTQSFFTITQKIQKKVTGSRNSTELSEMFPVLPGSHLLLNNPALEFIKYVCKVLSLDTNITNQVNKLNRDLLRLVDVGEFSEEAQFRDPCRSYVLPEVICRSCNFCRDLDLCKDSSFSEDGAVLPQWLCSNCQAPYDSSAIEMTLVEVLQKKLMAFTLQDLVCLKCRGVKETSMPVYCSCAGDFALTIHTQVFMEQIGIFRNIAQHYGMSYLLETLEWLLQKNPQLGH
T1 sequence (P56282 whole entry, chain 2 of 4): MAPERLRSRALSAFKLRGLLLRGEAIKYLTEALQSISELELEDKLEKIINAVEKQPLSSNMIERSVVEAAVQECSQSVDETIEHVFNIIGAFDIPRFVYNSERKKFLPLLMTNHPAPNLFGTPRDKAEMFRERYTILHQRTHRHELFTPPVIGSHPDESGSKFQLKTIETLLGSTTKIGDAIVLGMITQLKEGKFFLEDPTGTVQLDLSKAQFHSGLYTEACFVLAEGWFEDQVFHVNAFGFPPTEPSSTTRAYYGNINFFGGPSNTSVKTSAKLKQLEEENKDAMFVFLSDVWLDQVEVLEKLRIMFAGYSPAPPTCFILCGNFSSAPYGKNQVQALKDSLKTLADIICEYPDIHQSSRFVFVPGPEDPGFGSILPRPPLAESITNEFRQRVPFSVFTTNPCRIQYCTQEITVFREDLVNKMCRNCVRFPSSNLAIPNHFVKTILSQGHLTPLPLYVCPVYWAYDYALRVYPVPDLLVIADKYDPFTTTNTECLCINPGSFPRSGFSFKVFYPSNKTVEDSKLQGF
T1 sequence (Q9NRF9 whole entry, chain 3 of 4): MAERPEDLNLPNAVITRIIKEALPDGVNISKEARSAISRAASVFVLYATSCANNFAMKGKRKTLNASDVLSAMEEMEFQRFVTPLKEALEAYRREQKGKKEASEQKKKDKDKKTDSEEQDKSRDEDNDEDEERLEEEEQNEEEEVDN
T1 sequence (Q9NR33 whole entry, chain 4 of 4): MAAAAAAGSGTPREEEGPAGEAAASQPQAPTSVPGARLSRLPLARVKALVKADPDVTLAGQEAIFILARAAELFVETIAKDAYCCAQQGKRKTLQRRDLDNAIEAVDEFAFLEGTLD

B1: RTEL1 ΔE813-E821 ΔR875-V881 (enzyme, human, UniProt Q9NZ71-1 1-1219, looked up)
chain: MPKIVLNGVTVDFPFQPYKCQQEYMTKVLECLQQKVNGILESPTGTGKTLCLLCTTLAWREHLRDGISARKIAERAQGELFPDRALSSWGNAAAAAGDPIACYTDIPKIIYASRTHSQLTQVINELRNTSYRPKVCVLGSREQLCIHPEVKKQESNHLQIHLCRKKVASRSCHFYNNVEEKSLEQELASPILDIEDLVKSGSKHRVCPYYLSRNLKQQADIIFMPYNYLLDAKSRRAHNIDLKGTVVIFDEAHNVEKMCEESASFDLTPHDLASGLDVIDQVLEEQTKAAQQGEPHPEFSADSPSPGLNMELEDIAKLKMILLRLEGAIDAVELPGDDSGVTKPGSYIFELFAEAQITFQTKGCILDSLDQIIQHLAGRAGVFTNTAGLQKLADIIQIVFSVDPSEGSPGSPAGLGALQSYKVHIHPDAGHRRTAQRSDAWSTTAARKRGKVLSYWCFSPGHSMHELVRQGVRSLILTSGTLAPVSSFALEMQIPFPVCLENPHIIDKHQIWVGVVPRGPDGAQLSSAFDRRFSEECLSSLGKALGNIARVVPYGLLIFFPSYPVMEKSLEFWRARDLARKMEALKPLFVEPRSKGSFSETISAYYARVAAPGSTGATFLAVCRGKASEGLDFSDTNGRGVIVTGLPYPPRMDPRVVLKMQFLDEMKGQGGAGGQFLSGQEWYRQQASRAVNQAIGRVIRHRQDYGAVFLCDHRFAFADARAQLPSWVRPHVRVYDNFGHVIRDVAQFFRVAERTMPAPAPRATAPSVRGEDAVSEAKSPGPFFSTRKAKSLDLHVPSLKQRSSGSPAAGDPQEPVPARQRPRGLLAALEHSEQRAGSPGEEQAHSCSTLSLLSEKRPAEEPRGGSHPEEPVAGAQTDRAKLFMVAVKQELSQANFATFTQALQDYKGSDDFAALAACLGPLFAEDPKKHNLLQGFYQFVRPHHKQQFEEVCIQLTGRGCGYRPEHSIPRRQRAQPVLDPTGRTAPDPKLTVSTAAAQQLDPQEHLNQGRPHLSPRPPPTGDPGSQPQWGSGVPRAGKQGQHAVSAYLADARRALGSAGCSQLLAALTAYKQDDDLDKVLAVLAALTTAKPEDFPLLHRFSMFVRPHHKQRFSQTCTDLTGRPYPGMEPPGPQEERLAVPPVLTHRAPQPGPSRSEKTGKTQSKISSFLRQRPAGTVGAGGEDAGPSQSSGPPHGPAASEWGL
notes: Plasmid pSP53; also called hsRTEL1ΔE813-E821 ΔR875-V881; source: S. cerevisiae strain ySP070, purified (anti-FLAG M2 resin, HiLoad Superdex 200); not shown: 2XFLAG, C-terminal, kept
Take B1: the binding result in test [1] is “binds”.

B2: RTEL1ΔL834-G846 (enzyme, human, UniProt Q9NZ71-1 1-1219, looked up)
chain: MPKIVLNGVTVDFPFQPYKCQQEYMTKVLECLQQKVNGILESPTGTGKTLCLLCTTLAWREHLRDGISARKIAERAQGELFPDRALSSWGNAAAAAGDPIACYTDIPKIIYASRTHSQLTQVINELRNTSYRPKVCVLGSREQLCIHPEVKKQESNHLQIHLCRKKVASRSCHFYNNVEEKSLEQELASPILDIEDLVKSGSKHRVCPYYLSRNLKQQADIIFMPYNYLLDAKSRRAHNIDLKGTVVIFDEAHNVEKMCEESASFDLTPHDLASGLDVIDQVLEEQTKAAQQGEPHPEFSADSPSPGLNMELEDIAKLKMILLRLEGAIDAVELPGDDSGVTKPGSYIFELFAEAQITFQTKGCILDSLDQIIQHLAGRAGVFTNTAGLQKLADIIQIVFSVDPSEGSPGSPAGLGALQSYKVHIHPDAGHRRTAQRSDAWSTTAARKRGKVLSYWCFSPGHSMHELVRQGVRSLILTSGTLAPVSSFALEMQIPFPVCLENPHIIDKHQIWVGVVPRGPDGAQLSSAFDRRFSEECLSSLGKALGNIARVVPYGLLIFFPSYPVMEKSLEFWRARDLARKMEALKPLFVEPRSKGSFSETISAYYARVAAPGSTGATFLAVCRGKASEGLDFSDTNGRGVIVTGLPYPPRMDPRVVLKMQFLDEMKGQGGAGGQFLSGQEWYRQQASRAVNQAIGRVIRHRQDYGAVFLCDHRFAFADARAQLPSWVRPHVRVYDNFGHVIRDVAQFFRVAERTMPAPAPRATAPSVRGEDAVSEAKSPGPFFSTRKAKSLDLHVPSLKQRSSGSPAAGDPESSLCVEYEQEPVPARQRPRGSPGEEQAHSCSTLSLLSEKRPAEEPRGGRKKIRLVSHPEEPVAGAQTDRAKLFMVAVKQELSQANFATFTQALQDYKGSDDFAALAACLGPLFAEDPKKHNLLQGFYQFVRPHHKQQFEEVCIQLTGRGCGYRPEHSIPRRQRAQPVLDPTGRTAPDPKLTVSTAAAQQLDPQEHLNQGRPHLSPRPPPTGDPGSQPQWGSGVPRAGKQGQHAVSAYLADARRALGSAGCSQLLAALTAYKQDDDLDKVLAVLAALTTAKPEDFPLLHRFSMFVRPHHKQRFSQTCTDLTGRPYPGMEPPGPQEERLAVPPVLTHRAPQPGPSRSEKTGKTQSKISSFLRQRPAGTVGAGGEDAGPSQSSGPPHGPAASEWGL
notes: Plasmid pSP48; also called hsRTEL1ΔL834-G846; source: S. cerevisiae strain ySP072, purified (anti-FLAG M2 resin, HiLoad Superdex 200); not shown: 2XFLAG, C-terminal, kept
For the molecule B2, in test [2], the binding result is recorded as “binds”.

B3: RTEL1ΔR875-V881 (enzyme, human, UniProt Q9NZ71-1 1-1219, looked up)
chain: MPKIVLNGVTVDFPFQPYKCQQEYMTKVLECLQQKVNGILESPTGTGKTLCLLCTTLAWREHLRDGISARKIAERAQGELFPDRALSSWGNAAAAAGDPIACYTDIPKIIYASRTHSQLTQVINELRNTSYRPKVCVLGSREQLCIHPEVKKQESNHLQIHLCRKKVASRSCHFYNNVEEKSLEQELASPILDIEDLVKSGSKHRVCPYYLSRNLKQQADIIFMPYNYLLDAKSRRAHNIDLKGTVVIFDEAHNVEKMCEESASFDLTPHDLASGLDVIDQVLEEQTKAAQQGEPHPEFSADSPSPGLNMELEDIAKLKMILLRLEGAIDAVELPGDDSGVTKPGSYIFELFAEAQITFQTKGCILDSLDQIIQHLAGRAGVFTNTAGLQKLADIIQIVFSVDPSEGSPGSPAGLGALQSYKVHIHPDAGHRRTAQRSDAWSTTAARKRGKVLSYWCFSPGHSMHELVRQGVRSLILTSGTLAPVSSFALEMQIPFPVCLENPHIIDKHQIWVGVVPRGPDGAQLSSAFDRRFSEECLSSLGKALGNIARVVPYGLLIFFPSYPVMEKSLEFWRARDLARKMEALKPLFVEPRSKGSFSETISAYYARVAAPGSTGATFLAVCRGKASEGLDFSDTNGRGVIVTGLPYPPRMDPRVVLKMQFLDEMKGQGGAGGQFLSGQEWYRQQASRAVNQAIGRVIRHRQDYGAVFLCDHRFAFADARAQLPSWVRPHVRVYDNFGHVIRDVAQFFRVAERTMPAPAPRATAPSVRGEDAVSEAKSPGPFFSTRKAKSLDLHVPSLKQRSSGSPAAGDPESSLCVEYEQEPVPARQRPRGLLAALEHSEQRAGSPGEEQAHSCSTLSLLSEKRPAEEPRGGSHPEEPVAGAQTDRAKLFMVAVKQELSQANFATFTQALQDYKGSDDFAALAACLGPLFAEDPKKHNLLQGFYQFVRPHHKQQFEEVCIQLTGRGCGYRPEHSIPRRQRAQPVLDPTGRTAPDPKLTVSTAAAQQLDPQEHLNQGRPHLSPRPPPTGDPGSQPQWGSGVPRAGKQGQHAVSAYLADARRALGSAGCSQLLAALTAYKQDDDLDKVLAVLAALTTAKPEDFPLLHRFSMFVRPHHKQRFSQTCTDLTGRPYPGMEPPGPQEERLAVPPVLTHRAPQPGPSRSEKTGKTQSKISSFLRQRPAGTVGAGGEDAGPSQSSGPPHGPAASEWGL
notes: Plasmid pSP52; also called hsRTEL1ΔR875-V881; source: S. cerevisiae strain ySP076, purified (anti-FLAG M2 resin, HiLoad Superdex 200); not shown: 2XFLAG, C-terminal, kept
For the molecule B3, the binding result in test [1] is on record as “binds”.

B4: Homo sapiens RTEL1 (wild-type, FLAG-tagged) (enzyme, human, UniProt Q9NZ71-1 1-1219, looked up)
chain: MPKIVLNGVTVDFPFQPYKCQQEYMTKVLECLQQKVNGILESPTGTGKTLCLLCTTLAWREHLRDGISARKIAERAQGELFPDRALSSWGNAAAAAGDPIACYTDIPKIIYASRTHSQLTQVINELRNTSYRPKVCVLGSREQLCIHPEVKKQESNHLQIHLCRKKVASRSCHFYNNVEEKSLEQELASPILDIEDLVKSGSKHRVCPYYLSRNLKQQADIIFMPYNYLLDAKSRRAHNIDLKGTVVIFDEAHNVEKMCEESASFDLTPHDLASGLDVIDQVLEEQTKAAQQGEPHPEFSADSPSPGLNMELEDIAKLKMILLRLEGAIDAVELPGDDSGVTKPGSYIFELFAEAQITFQTKGCILDSLDQIIQHLAGRAGVFTNTAGLQKLADIIQIVFSVDPSEGSPGSPAGLGALQSYKVHIHPDAGHRRTAQRSDAWSTTAARKRGKVLSYWCFSPGHSMHELVRQGVRSLILTSGTLAPVSSFALEMQIPFPVCLENPHIIDKHQIWVGVVPRGPDGAQLSSAFDRRFSEECLSSLGKALGNIARVVPYGLLIFFPSYPVMEKSLEFWRARDLARKMEALKPLFVEPRSKGSFSETISAYYARVAAPGSTGATFLAVCRGKASEGLDFSDTNGRGVIVTGLPYPPRMDPRVVLKMQFLDEMKGQGGAGGQFLSGQEWYRQQASRAVNQAIGRVIRHRQDYGAVFLCDHRFAFADARAQLPSWVRPHVRVYDNFGHVIRDVAQFFRVAERTMPAPAPRATAPSVRGEDAVSEAKSPGPFFSTRKAKSLDLHVPSLKQRSSGSPAAGDPESSLCVEYEQEPVPARQRPRGLLAALEHSEQRAGSPGEEQAHSCSTLSLLSEKRPAEEPRGGRKKIRLVSHPEEPVAGAQTDRAKLFMVAVKQELSQANFATFTQALQDYKGSDDFAALAACLGPLFAEDPKKHNLLQGFYQFVRPHHKQQFEEVCIQLTGRGCGYRPEHSIPRRQRAQPVLDPTGRTAPDPKLTVSTAAAQQLDPQEHLNQGRPHLSPRPPPTGDPGSQPQWGSGVPRAGKQGQHAVSAYLADARRALGSAGCSQLLAALTAYKQDDDLDKVLAVLAALTTAKPEDFPLLHRFSMFVRPHHKQRFSQTCTDLTGRPYPGMEPPGPQEERLAVPPVLTHRAPQPGPSRSEKTGKTQSKISSFLRQRPAGTVGAGGEDAGPSQSSGPPHGPAASEWGL
notes: RTEL1, human; the models and residue numbers are of isoform 1 (NP_057518.1), printed to residue 1219; Plasmid pTD195; The isoform is printed for the AlphaFold models; the deletion mutants use the same numbering; also called hsRTEL1; RTEL1-2FLAG; source: S. cerevisiae strain yOO1, purified (anti-FLAG M2 resin, HiLoad Superdex 200); not shown: 2XFLAG, C-terminal, kept
In the case of B4, the binding result in test [2] is reported as “binds”.
